Patent US20110129481A1

Key:
[1] = target: human c-Met/Fc fusion protein (R&D Systems, Inc.) (human) (UniProt P08581); experiment: ELISA, plate-bound c-Met/Fc (2 ug/ml), anti-mouse IgG-HRP
[2] = target: mouse c-Met/Fc fusion protein (R&D Systems, Inc.) (mouse) (UniProt P16056); experiment: as above
UniProt P16056, sequence (P16056 25-931 limits assumed): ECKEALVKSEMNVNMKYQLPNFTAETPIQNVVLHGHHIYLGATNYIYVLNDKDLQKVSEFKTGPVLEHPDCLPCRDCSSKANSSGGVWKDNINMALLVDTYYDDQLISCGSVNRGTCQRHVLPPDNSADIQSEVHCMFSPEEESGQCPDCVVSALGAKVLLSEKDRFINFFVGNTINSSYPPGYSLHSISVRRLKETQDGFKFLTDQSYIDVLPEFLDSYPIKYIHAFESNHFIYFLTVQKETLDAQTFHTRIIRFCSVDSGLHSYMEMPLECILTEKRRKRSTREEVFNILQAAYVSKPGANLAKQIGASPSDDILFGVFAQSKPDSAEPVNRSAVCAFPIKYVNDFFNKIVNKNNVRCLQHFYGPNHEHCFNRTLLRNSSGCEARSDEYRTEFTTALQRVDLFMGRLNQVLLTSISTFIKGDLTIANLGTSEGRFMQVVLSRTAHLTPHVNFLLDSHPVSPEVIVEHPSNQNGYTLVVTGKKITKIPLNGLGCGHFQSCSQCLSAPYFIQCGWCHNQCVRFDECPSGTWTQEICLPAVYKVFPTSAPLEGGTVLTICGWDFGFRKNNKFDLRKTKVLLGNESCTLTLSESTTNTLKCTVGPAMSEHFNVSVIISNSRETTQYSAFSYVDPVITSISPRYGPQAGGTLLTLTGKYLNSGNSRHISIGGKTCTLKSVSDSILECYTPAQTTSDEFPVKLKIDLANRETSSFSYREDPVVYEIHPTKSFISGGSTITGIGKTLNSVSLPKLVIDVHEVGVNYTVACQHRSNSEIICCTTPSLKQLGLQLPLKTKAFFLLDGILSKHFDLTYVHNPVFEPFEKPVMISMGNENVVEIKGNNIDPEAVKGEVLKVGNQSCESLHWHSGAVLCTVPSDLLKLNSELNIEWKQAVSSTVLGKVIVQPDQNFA

UniProt P08581, sequence (P08581 25-932 limits assumed): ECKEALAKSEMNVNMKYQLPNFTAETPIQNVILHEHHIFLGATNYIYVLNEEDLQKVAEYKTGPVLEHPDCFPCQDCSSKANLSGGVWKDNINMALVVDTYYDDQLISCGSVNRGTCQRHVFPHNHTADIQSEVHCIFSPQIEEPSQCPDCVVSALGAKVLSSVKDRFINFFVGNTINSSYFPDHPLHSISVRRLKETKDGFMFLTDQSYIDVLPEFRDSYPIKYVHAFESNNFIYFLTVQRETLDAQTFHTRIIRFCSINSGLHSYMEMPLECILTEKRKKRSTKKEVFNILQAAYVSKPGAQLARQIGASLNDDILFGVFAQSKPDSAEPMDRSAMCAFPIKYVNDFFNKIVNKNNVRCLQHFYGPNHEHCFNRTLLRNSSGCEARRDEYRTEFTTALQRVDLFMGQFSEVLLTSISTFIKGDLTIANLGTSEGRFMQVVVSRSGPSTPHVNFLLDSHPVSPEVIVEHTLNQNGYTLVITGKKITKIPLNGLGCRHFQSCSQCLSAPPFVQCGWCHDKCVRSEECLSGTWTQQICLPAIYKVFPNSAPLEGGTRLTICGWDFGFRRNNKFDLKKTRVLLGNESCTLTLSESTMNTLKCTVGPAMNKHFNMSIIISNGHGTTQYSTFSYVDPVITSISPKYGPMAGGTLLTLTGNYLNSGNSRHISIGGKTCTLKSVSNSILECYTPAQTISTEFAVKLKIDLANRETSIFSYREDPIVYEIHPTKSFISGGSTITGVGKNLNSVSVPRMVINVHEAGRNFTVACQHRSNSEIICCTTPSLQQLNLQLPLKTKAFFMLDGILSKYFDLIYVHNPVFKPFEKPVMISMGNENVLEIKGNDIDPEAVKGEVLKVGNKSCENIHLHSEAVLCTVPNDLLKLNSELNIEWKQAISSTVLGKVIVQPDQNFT

absorption at 450 nm [1]: 0.373
absorption at 450 nm [2]: 0.113
Substance: monoclonal antibody against human c-Met, 5D5 (Genetech)
